Drawing on publication PMC10397247, this text covers interaction score for five molecules.

The target of one assay is T1, APC3354-AA.
T1 chain: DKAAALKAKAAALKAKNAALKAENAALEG
Put plainly: two-hybrid library CCmax.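 Note: natural log of median RNA to DNA barcode read ratio; higher means stronger binding.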 As to conditions: mean of both orientations.

In another assay the target is T2, APC9141-AA.
T2 chain: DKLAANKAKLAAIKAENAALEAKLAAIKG
Put plainly: two-hybrid library CCmax.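 Note: natural log of median RNA to DNA barcode read ratio; higher means stronger binding.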 As to conditions: mean of both orientations.

The target in the next assay is T3, APC4100-AA.
T3 chain: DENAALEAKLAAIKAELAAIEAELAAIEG
Briefly: two-hybrid library CCmax.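 Note: natural log of median RNA to DNA barcode read ratio; higher means stronger binding.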 As to conditions: mean of both orientations.

Another assay has as its target T4, APC7524-AA.
T4 chain: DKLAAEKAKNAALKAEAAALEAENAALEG
Put plainly: two-hybrid library CCmax.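 Note: natural log of median RNA to DNA barcode read ratio; higher means stronger binding.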 As to conditions: mean of both orientations.

The next assay has as its target T5, APC3265-AA.
T5 chain: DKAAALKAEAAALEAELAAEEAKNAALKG
Put plainly: two-hybrid library CCmax.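 Note: natural log of median RNA to DNA barcode read ratio; higher means stronger binding.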 Conditions: mean of both orientations.

The target of a further assay is T6, APC6088-AA.
T6 chain: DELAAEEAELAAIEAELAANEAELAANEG
Briefly: two-hybrid library CCmax.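 Note: natural log of median RNA to DNA barcode read ratio; higher means stronger binding.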 Conditions: mean of both orientations.

The next assay has as its target T7, APC542-AA.
T7 chain: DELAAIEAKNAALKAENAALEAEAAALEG
Put plainly: two-hybrid library CCmax. As to conditions: mean of both orientations.

The next assay has as its target T8, APC2981-AA.
T8 chain: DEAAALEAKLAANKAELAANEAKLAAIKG
Put plainly: two-hybrid library CCmax. Conditions: mean of both orientations.

The target of another assay is T9, APC8401-AA.
T9 chain: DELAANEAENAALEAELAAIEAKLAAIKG
Briefly: two-hybrid library CCmax. Conditions: mean of both orientations.

For the next assay, the target named is T10, APC9291-AA.
T10 chain: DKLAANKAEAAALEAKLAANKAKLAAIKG
Briefly: two-hybrid library CCmax. As to conditions: mean of both orientations.

The target in the next assay is T11, APC8516-AA.
T11 chain: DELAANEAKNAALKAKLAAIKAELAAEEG
Briefly: two-hybrid library CCmax. Conditions: mean of both orientations.

The target in the next assay is T12, APC3323-AA.
T12 chain: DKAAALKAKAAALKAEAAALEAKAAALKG
Briefly: two-hybrid library CCmax. As to conditions: mean of both orientations.

Another assay deals with T13, APC5009-AA.
T13 chain: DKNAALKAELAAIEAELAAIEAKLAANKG
Briefly: two-hybrid library CCmax. As to conditions: mean of both orientations.

A further assay concerns the target T14, APC2556-AA.
T14 chain: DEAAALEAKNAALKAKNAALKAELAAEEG
Put plainly: two-hybrid library CCmax.

For a further assay, the target named is T15, APC9182-AA.
T15 chain: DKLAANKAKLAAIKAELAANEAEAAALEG
Put plainly: two-hybrid library CCmax. As to conditions: mean of both orientations.

In another assay the target is T16, APC5531-AA.
T16 chain: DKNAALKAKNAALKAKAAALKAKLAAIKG
Put plainly: two-hybrid library CCmax. Conditions: mean of both orientations.

For the next assay, the target named is T17, APC2811-AA.
T17 chain: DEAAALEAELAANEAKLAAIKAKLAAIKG
Put plainly: two-hybrid library CCmax. As to conditions: mean of both orientations.

A further assay addresses T18, APC4336-AA.
T18 chain: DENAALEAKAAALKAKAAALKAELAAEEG
Put plainly: two-hybrid library CCmax. As to conditions: mean of both orientations.

For a further assay, the target named is T19, APC2724-AA.
T19 chain: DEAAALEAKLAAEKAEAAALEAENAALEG
Briefly: two-hybrid library CCmax. As to conditions: mean of both orientations.

The next assay deals with T20, APC3881-AA.
T20 chain: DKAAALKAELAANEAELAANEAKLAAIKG
Briefly: two-hybrid library CCmax. As to conditions: mean of both orientations.

Another assay deals with T21, APC9806-AA.
T21 chain: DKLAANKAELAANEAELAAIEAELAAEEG
Put plainly: two-hybrid library CCmax. Conditions: mean of both orientations.

The target in a further assay is T22, 4H953-AA.
T22 chain: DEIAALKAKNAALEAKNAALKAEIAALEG
Briefly: two-hybrid library CCmax. As to conditions: mean of both orientations.

The target in another assay is T23, 4H967-AA.
T23 chain: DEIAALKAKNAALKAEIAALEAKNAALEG
Put plainly: two-hybrid library CCmax. Conditions: mean of both orientations.

In another assay the target is T24, 4H687-AA.
T24 chain: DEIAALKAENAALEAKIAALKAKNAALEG
Briefly: two-hybrid library CCmax. As to conditions: mean of both orientations.

The next assay has as its target T25, 4H717-AA.
T25 chain: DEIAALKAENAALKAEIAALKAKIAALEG
Briefly: two-hybrid library CCmax. As to conditions: mean of both orientations.

The target of the next assay is T26, 4H918-AA.
T26 chain: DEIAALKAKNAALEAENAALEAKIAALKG
Briefly: two-hybrid library CCmax. As to conditions: mean of both orientations.

For a further assay, the target named is T27, 4H883-AA.
T27 chain: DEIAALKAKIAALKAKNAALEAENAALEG
Briefly: two-hybrid library CCmax. Conditions: mean of both orientations.

The next assay concerns the target T28, 4H4001-AA.
T28 chain: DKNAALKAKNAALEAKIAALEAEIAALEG
Put plainly: two-hybrid library CCmax.

The target of another assay is T29, 4H797-AA.
T29 chain: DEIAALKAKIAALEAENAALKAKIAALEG
Put plainly: two-hybrid library CCmax. As to conditions: mean of both orientations.

The target in a further assay is T30, 4H568-AA.
T30 chain: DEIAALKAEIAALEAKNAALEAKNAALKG
Briefly: two-hybrid library CCmax. Conditions: mean of both orientations.

In a further assay the target is T31, O3-bH.
T31 chain: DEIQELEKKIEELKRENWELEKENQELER
Briefly: two-hybrid library CCNG1.

Another assay addresses T32, O4-bH.
T32 chain: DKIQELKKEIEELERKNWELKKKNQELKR
Briefly: two-hybrid library CCNG1.

For the next assay, the target named is T33, O9-bH.
T33 chain: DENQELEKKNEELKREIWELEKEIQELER
Briefly: two-hybrid library CCNG1.

Another assay deals with T34, O7-bH.
T34 chain: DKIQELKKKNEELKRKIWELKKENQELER
Briefly: two-hybrid library CCNG1.

For the next assay, the target named is T35, O6-bH.
T35 chain: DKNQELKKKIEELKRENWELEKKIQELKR
Briefly: two-hybrid library CCNG1.

The next assay addresses T36, O5-bH.
T36 chain: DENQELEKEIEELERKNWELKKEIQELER
Put plainly: two-hybrid library CCNG1.

The target of the next assay is T37, O8-bH.
T37 chain: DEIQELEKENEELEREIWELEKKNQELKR
Put plainly: two-hybrid library CCNG1.

The next assay concerns the target T38, O8-bP.
T38 chain: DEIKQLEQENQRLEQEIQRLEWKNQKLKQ
Put plainly: two-hybrid library CCNG1.

Another assay concerns the target T39, 4H584-bN.
T39 chain: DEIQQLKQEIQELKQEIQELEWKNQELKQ
Put plainly: two-hybrid library CCNG1.

The next assay deals with T40, 4H619-bN.
T40 chain: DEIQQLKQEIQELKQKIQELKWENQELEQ
Put plainly: two-hybrid library CCNG1.

The target of another assay is T41, 4H3817-bN.
T41 chain: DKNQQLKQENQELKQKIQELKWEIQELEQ
Put plainly: two-hybrid library CCNG1.

The next assay concerns the target T42, 4H906-bN.
T42 chain: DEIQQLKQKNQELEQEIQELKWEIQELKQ
Briefly: two-hybrid library CCNG1.

A further assay deals with T43, 4H850-bN.
T43 chain: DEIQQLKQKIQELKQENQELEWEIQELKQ
Briefly: two-hybrid library CCNG1.

A further assay has as its target T44, 4H3129-bN.
T44 chain: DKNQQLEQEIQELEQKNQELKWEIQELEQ
Briefly: two-hybrid library CCNG1.

A further assay concerns the target T45, 4H570-bN.
T45 chain: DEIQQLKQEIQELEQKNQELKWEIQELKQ
Briefly: two-hybrid library CCNG1.

The next assay addresses T46, 4H3638-bN.
T46 chain: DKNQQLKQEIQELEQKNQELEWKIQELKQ
Put plainly: two-hybrid library CCNG1.

Another assay has as its target T47, 4H3414-bN.
T47 chain: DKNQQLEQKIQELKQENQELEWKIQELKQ
Put plainly: two-hybrid library CCNG1.

A further assay has as its target T48, 4H3172-bN.
T48 chain: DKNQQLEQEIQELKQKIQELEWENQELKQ
Briefly: two-hybrid library CCNG1.

For another assay, the target named is T49, 4H3974-bN.
T49 chain: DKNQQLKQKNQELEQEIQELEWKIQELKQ
Put plainly: two-hybrid library CCNG1.

In another assay the target is T50, 4H3631-bN.
T50 chain: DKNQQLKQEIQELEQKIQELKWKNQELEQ
Put plainly: two-hybrid library CCNG1.

B1: APC2556-AA (peptide)
chain: DEAAALEAKNAALKAKNAALKAELAAEEG
For B1, the interaction score in the assay with APC3354-AA is -1.9; with APC9141-AA, -1.94; with APC4100-AA it was -2.2; with APC7524-AA it was -2.09; in the assay with APC3265-AA, -1.69; with APC6088-AA it was -1.75. The interaction score with APC542-AA was -1.72; in the assay with APC2981-AA it was -1.98; in the assay with APC8401-AA, -1.48; with APC9291-AA, -1.79; with APC8516-AA it was -2.01; with APC3323-AA it was -1.82. Also, the interaction score was -1.65 in the assay with APC5009-AA; -1.78 with APC2556-AA; -1.74 with APC9182-AA; -1.7 in the assay with APC5531-AA; -1.73 in the assay with APC2811-AA; -1.77 with APC4336-AA. The interaction score with APC2724-AA was -1.65; with APC3881-AA it was -1.61; with APC9806-AA it was -2.15.

B2: 4H4001-AA (peptide)
chain: DKNAALKAKNAALEAKIAALEAEIAALEG
As for B2, the interaction score with 4H953-AA is -1.79; with 4H967-AA it was -1.57; with 4H687-AA, -2.04; in the assay with 4H717-AA, -1.32; with 4H918-AA, -0.824; in the assay with 4H883-AA it was -1.75. In addition, the interaction score with 4H4001-AA is -1.19; with 4H797-AA, -1.79; in the assay with 4H568-AA, -1.85.

B3: O3-bH (peptide)
chain: DEIQELEKKIEELKRENWELEKENQELER
With B3, the interaction score is -0.176 with O3-bH; 2.01 with O4-bH; -0.716 with O9-bH; -0.247 in the assay with O7-bH; -0.104 with O6-bH; -0.92 with O5-bH. This molecule yielded an interaction score with O8-bH of 0.212.

B4: O2-bH (peptide)
chain: DENQELEKKNEELKRKIWELKKKIQELKR
Consider B4, for which the interaction score in the assay with O8-bP is -0.645; in the assay with O3-bH, 0.993; in the assay with O4-bH, -0.611; in the assay with O9-bH, 0.854; in the assay with O7-bH it was -0.662; in the assay with O6-bH it was 0.712. Moreover, the interaction score with O5-bH is -1.53; with O8-bH it was 0.211.

B5: 4H3129-bN (peptide)
chain: DKNQQLEQEIQELEQKNQELKWEIQELEQ
B5: the interaction score with 4H584-bN was -1.09; in the assay with 4H619-bN it was -0.774; with 4H3817-bN, -1.45; with 4H906-bN, -1.2; in the assay with 4H850-bN, -1.41; with 4H3129-bN, -0.749. The interaction score with 4H570-bN was -0.835; with 4H3638-bN, -1.26; with 4H3414-bN it was 1.09; with 4H3172-bN, -0.806; with 4H3974-bN, -0.744; with 4H3631-bN it was -1.47.
